This is an account of results in patent publication WO2006121159A1 (dated 2006).

Residue numbers refer to the chain shown, from its start.

The chains are these.
B1: MS705/HV0LV9 antibody (anti-CD10 CDR-grafted antibody obtained from the HV0LV9MS705 strain, FERM BP-10099) (antibody, V domains shown)
VH: EVQLVESGGGVVQPGRSLRLSCAASGFTFSSFGMHWVRQAPGKGLEWVAYISGGSYTIYYADTVKGRFTISRDNSKNTLYLQMNSLRAEDTAVYYCARSYGNFWYFDVWGQGTTVTVSS
VL: DIVMTQSPDSLAVSLGERATIACSVSSSISSSNLHWYQQKPGQSPKPWIYGTSNLASGVPVRFSGSGSGTSYFLTISSLQAEDVATYYCQQWSSYPLTFGQGTKVEIKR
notes: Whole antibody expressed from pKANTEX3061HV0LV9 (human constant regions)
B2: MS705/HV0LV0 antibody (anti-CD10 CDR-grafted antibody obtained from the HV0LV0MS705 strain) (antibody, V domains shown)
VH: B1 VH
VL: B1 VL with A22N, S44P, P47L, W48L, V61D, S71D, Y72F, F73T, T86V
notes: Whole antibody expressed from pKANTEX3061HV0LV0 (human constant regions from the anti-CD10 chimeric antibody expression vector)
B3: MS705/HV2LV9 antibody (anti-CD10 CDR-grafted antibody obtained from the HV2LV9MS705 strain) (antibody, V domains shown)
VH: B1 VH with G42E, R98S
VL: B1 VL
notes: Whole antibody expressed from pKANTEX3061HV2LV9 (human constant regions)

T1 sequence (P08473 2-750): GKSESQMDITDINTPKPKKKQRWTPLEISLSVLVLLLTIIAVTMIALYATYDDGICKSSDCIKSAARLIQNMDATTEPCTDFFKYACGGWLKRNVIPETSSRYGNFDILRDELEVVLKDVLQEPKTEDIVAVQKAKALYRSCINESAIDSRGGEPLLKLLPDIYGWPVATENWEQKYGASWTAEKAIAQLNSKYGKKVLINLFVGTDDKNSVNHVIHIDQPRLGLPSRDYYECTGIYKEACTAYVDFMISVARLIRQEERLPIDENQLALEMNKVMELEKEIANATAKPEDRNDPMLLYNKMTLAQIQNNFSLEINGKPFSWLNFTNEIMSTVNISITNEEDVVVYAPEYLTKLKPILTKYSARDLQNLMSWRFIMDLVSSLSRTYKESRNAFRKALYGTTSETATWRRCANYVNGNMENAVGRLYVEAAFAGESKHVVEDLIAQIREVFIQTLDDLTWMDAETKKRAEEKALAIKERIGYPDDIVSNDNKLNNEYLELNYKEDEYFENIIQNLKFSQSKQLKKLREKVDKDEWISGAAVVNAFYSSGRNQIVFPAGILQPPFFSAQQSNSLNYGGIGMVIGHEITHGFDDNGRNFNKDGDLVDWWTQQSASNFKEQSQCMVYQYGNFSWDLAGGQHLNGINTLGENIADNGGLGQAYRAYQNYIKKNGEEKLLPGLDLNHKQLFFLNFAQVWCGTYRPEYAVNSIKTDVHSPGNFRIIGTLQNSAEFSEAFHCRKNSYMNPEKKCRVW

The assay addresses T1, CD10 (membrane fraction of the CD10-high-expressing human small cell lung cancer cell line SBC-3) (human, UniProt P08473 2-750).
T1 construct: whole, on cells; The antigen was a crude cell membrane fraction, not purified CD10 and not intact cells; also called CALLA; neutral endopeptidase
As to the kind of experiment: ELISA; plate coated with membrane fraction of CD10-high SBC-3 cells; peroxidase-labelled anti-human IgG(H&L); OD415. (ELISA stands for enzyme-linked immunosorbent assay.)
Regarding B1, the binding result was “binds”.

Take B2: the binding result is “binds”.

As for B3, the binding result is “binds”.
